Results: the nanobody polyreactivity screen of Harvey et al. (2022)

Test: yeast display, Sf9 membrane polyspecificity reagent, FACS + sequencing; frameworks hold sequencing errors
Procedure, shortened: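 In a synthetic yeast display library (Saccharomyces cerevisiae BJ5465), nanobody expression was induced with galactose for 36–48 hours. FACS gates were set low and high (top ~1%) using anti-HA fluorescence for expression and streptavidin fluorescence for binding of the Sf9 membrane reagent. Each polyreactivity label is drawn from the gate of origin.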

Row | Sequence | polyreactivity (PSR sort gate)
1 | QVQLVESGGGLVQEGGSLCLSCAASGIFVYNAMGWYRQAPGKEREFVAAINKSGASTFYADSVKGRFTISRDNAKNTVYLQMNSLKPEDTAVYYCNAGTLYYRYRWGHYYDSWGQGTQVTVSS | low polyreactivity
2 | QVQLVESGGGLVQEGGSLGLSCAASGFIFVRYAMGWYRQAPGKERELVATITRGGGTYYADSVKARFTISRDNAKNTVYLQMKRLKPVDTAVYYCNKRGYSRYTGFGLDSWGQGTQVTVSS | high polyreactivity
3 | QVQLVESGGGLVQEGGSLLISCAASGSIVESYAMGWYRQAPGKEREWVAAITIRGASPYYADSVKGRFTISRDNAKNTVYLQMNSLKPEDTAVYYCNARWPGIGPIYDYWGQGTQVTVSS | low polyreactivity
4 | QVQLVESGGGLVQEGGSLRIICAASGFTFYRYARGWYRQEPGKERELVAAISSHGDRTYYSDSVKGRFTISRDNAKNTVYLQMNSLKPEDTAVYFCNVETLYGYFLHFYLRYYHWGQGTQVTVSS | high polyreactivity
5 | QVQLVESGGGLVQEGGSLRLICAASGIIFYFYAMGWYRQAPGKERELVAAISSGGGSTYYADSVKGRFTISRDNAKNTVYLQMNSLKPEDTAVYYCAAKIGRNFDWGQGTQVTVSS | high polyreactivity
6 | QVQLVESGGGLVQEGGSLRLICAASGRTFVYNTMGWYRQAPGKERELVAAITRSGDSTYDADSVKGRFTISRDTAKITVYIHMKSLKPDDTGVYYCNAVSNRYWLKDYWGQGTQVTVSS | high polyreactivity
7 | QVQLVESGGGLVQEGGSLRLICAASGRTFYKNAMGWYRPAPAKERELVAAISSRGGRTTYADSLKGRYTISRDNAKNTVYLQMNSLKTEDTAVYYCAADWEYDYWGQGTHVTVSS | high polyreactivity
8 | QVQLVESGGGLVQEGGSLRLICAASGSTFAANTMGWYRQEPGKERELVAAITDRGGSTYYADSVKGRFTISRDNAKNTVYLQMITLKPEDTAVYYSAAERPPYGYLVVGYVSTQYYYWGQGTQVTVSS | low polyreactivity
9 | QVQLVESGGGLVQEGGSLRLICSASGIILGPYAMGWYRQAPGKESELVSAISWRGGSTYYADSVKGRFTISRDNAKNTVYLQMNSLKPEDTAVYYCATASRTSRTGWAVYYWGQGTQVTVSS | high polyreactivity
10 | QVQLVESGGGLVQEGGSLRLRWAASGFIFDTYAMGWYRQAPGKERELVAGISDGGSTYYADSVKGRFTISRDNAKNTVYLQLNSLKPEDTAVYYCAAQGEYGFTAYYPGVSWGQGTQVTLSS | low polyreactivity
11 | QVQLVESGGGLVQEGGSLRLSCAASGFIVNRYAMGWYRQAPGKERELVAAITGSGSRTYYADSVKGRFTISRDNAKNTVYLHMNSLKPEATAVYYCNTDRRPTADFGYWGQGTQVTVAS | high polyreactivity
12 | QVQLVESGGGLVQEGGSLRLSCAASGFTFARYAMGWYRQSPGKERELVARISSRGGSTNFADSVKGRFTISRDNAKNTVYLQMNSLKPEDTAVYYCAKYYSSKYYYWGQGTQVTVSS | high polyreactivity
13 | QVQLVESGGGLVQEGGSLRLSCAASGFTLYGYTMGWYRQAPGKERELVAAISGSGGRTYYADSVKGRFTISRDNAKNTVYLQMNSLKPEVTEVYYCAADSRGTWYGYDYWGQGTQVTVSS | high polyreactivity
14 | QVQLVESGGGLVQEGGSLRLSCAASGGIFFPNAMGWYRQAPGKERELVAAISWSAGSTYYADSVKGRFTISRDNAKNTVYLQMKSLKPEDTAVYYCAAAGSNYTVWFGYYYWGQVTQVTVSS | low polyreactivity
15 | QVQLVESGGGLVQEGGSLRLSCAASGGIFGEYDMGGYRQAPGKERELVAAINWSGGSTYYADSVKGRFTISRDNAKNSVYLQMNSLKPEDTAVYYSAADRGYPRKVDYWGQVTQVTVSS | low polyreactivity
16 | QVQLVESGGGLVQEGGSLRLSCAASGGIFSAYAMGWYRQAPGKERELVAAISRTGGSTYYADSVKGRFTISRDNAKITVYLQMTSLKPEDTAVYYCNADYRRYPEFDYWGQGTQVTVSS | high polyreactivity
17 | QVQLVESGGGLVQEGGSLRLSCAASGGTFAYAMGWYRQAPGKERELVAAITWRGGDTYADSVKGRFTISRDNAKNTVYLQMNSLKPEDTAVYYCAAEFRDVSSNGYDYWGQGTQVTVSS | low polyreactivity
18 | QVQLVESGGGLVQEGGSLRLSCAASGGTFYAYTMGWYRPAPGTERELVAAISRSGGSTYYADSVKGRITISRDTAKNSVYLQINSLKPEDTAVYYCAAVESGADYYYWGQGTQVTVSS | high polyreactivity
19 | QVQLVESGGGLVQEGGSLRLSCAASGIIFPVYDMGWYRQAPGKERELVASITDSGGSTSYADSVKGRFTLSRDNAKNTVYLQMNSLKPEDTAVYYCAVTDSDTNYYGYLSYDYWGQGTQVTVSS | low polyreactivity
20 | QVQLVESGGGLVQEGGSLRLSCAASGIIFRWYAMGWYRQAPGKERELVAAITSDGNTYYADSVKGRFTISRDNAKNTVYLQMNSLKPVDTAVYYCAARLSYYSRMNYWGQGTQVTVSS | high polyreactivity
21 | QVQLVESGGGLVQEGGSLRLSCAASGILVYNAMGWYRQAPGTERELVAAISARGGRTYYADSVKGRFTISRDNAQNTDSLQMNSLKPEDTAVYYCASRSSKSRTYDYWGQGTQVTVSS | high polyreactivity
22 | QVQLVESGGGLVQEGGSLRLSCAASGITFSRNAMGWYRPAPGKERELVATITSGGSTNYADSVKGRFTISRDNAKNNVYLQMNSLKPEDTAVYYCNAVWNTFISGRSYDYWGQGTQVTVSS | low polyreactivity

Row | Sequence | polyreactivity (PSR sort gate)
23 | QVQLVESGGGLVQEGGSLRLSCAASGLIFGAYALGWYRQAPGKERELVAAISGRGGSTYYADSVKGRFTISHDNAKNTVYLQMNSLKPEDNAVYYCAAPWRYTYYYWGQGTQVTVSS | high polyreactivity
24 | QVQLVESGGGLVQEGGSLRLSCAASGLIFNRYDMGWYRQAPGKVTELVAAITSRGGRTYYADSVKGRFTISLDNAKTTVYLQMNSLKPEDTAVYYCNRTPTGSSLYGMDYWGQGTQVTVSS | high polyreactivity
25 | QVQLVESGGGLVQEGGSLRLSCAASGLIFSYYAMGWYRQAPGKERELVAAISWSGASTFYADSVKGRFTISRDNAKNTVYLQMNSLKPEDTAVYYCAADTYGKTYYYWGQGTLVTVSS | low polyreactivity
26 | QVQLVESGGGLVQEGGSLRLSCAASGLTFPYYAMGWYRQAPGKERELVAGISDSGGSTYYADSVKGRFTISRDNAKNTVYVQMNSLKPEDTAVYYCAAQGVDSYYENVYWGQGSQVTVSS | high polyreactivity
27 | QVQLVESGGGLVQEGGSLRLSCAASGRIFPYYAMGWYRQAPGKERELVAAITSGSRTYYADSVKGRFTISRDNAKNTVYLQMNSLKPEHTAVYYCNAVGGNSAYVYWGQGTQVTVSS | high polyreactivity
28 | QVQLVESGGGLVQEGGSLRLSCAASGRIFQWNAMGWYRQAPGKERELVATISSRGGSTYYADSVKGRFTISRDNAKNTVYLQMNSLKPEDTAVYYCAARYYAKYRSYDYWGQGTQVTVSS | high polyreactivity
29 | QVQLVESGGGLVQEGGSLRLSCAASGRIFRRYTMGWYRQAPGKERELVAVITSGGNTHYADSVKGRFTISRDNAKNTVYLQMNSLKPEDTAVYYCAARHYRGSNDYWGQGTQVTVSS | high polyreactivity
30 | QVQLVESGGGLVQEGGSLRLSCAASGRIFWSYAMGWYRQAPGKERELVAAITWRTGRTYYADSVKGRFTISRDNAKNTVYLQMNSLKPEDTAVYYCAAEGYLGGQSYNGLNYDSWGQGTQVTVSS | low polyreactivity
31 | QVQLVESGGGLVQEGGSLRLSCAASGRTFGYYVMGWYRQAPGKERELVAAISNTDSTYYADSVKGRFTISRDNAKNSVYLQMNSLKPEDTAVYYCDKDGRTVAYTWTRTHYYWGQGTQVTVSS | low polyreactivity
32 | QVQLVESGGGLVQEGGSLRLSCAASGSIFVLYAMGWYRQAPGKERQLVAAINYEGASTYYADSVKGRFTISRDNAKITVYLQMNSLKPEDKAVFYCAARWQFNIDVQLYLFEYWGQGTQVTVSS | low polyreactivity
33 | QVQLVESGGGLVQEGGSLRLSCAASGSTFDSNAMGWYRQAPGTERELVAAIDWSGGSTYYADSVKGRFTISRDNAKNSVYLQMNSLKPEDTAVYYCAADDYSSNYGDFDYWGQGTQVTVSS | low polyreactivity
34 | QVQLVESGGGLVQEGGSLRLSCAASGSTFEYNAMGWDRQAPGKEREFVAAISRTGSRTYYADSVKGRFTISRDNAKNTVFLQMNSLIPEDTAVYYCASVKSRLQVGYYSWGQGTQVTVSS | high polyreactivity
35 | QVQLVESGGGLVQEGGSLRLSCAASGSTFGVYSMGWYRQAPGKERELVAAISYTGGSTYYADSVKGRFTISRDNAKNSVYLQMNSLKPEDTGVFYCAVEVGYTDSPYSYDYWGEGTQVTVSS | low polyreactivity
36 | QVQLVESGGGLVQEGGSLRLSCAASGSTFTTNVMGWYRQAPGKERELVAAISWSSGSTYYADSVTGRFTISRDNAKNTVYLQMNSLKPEDTAVYYCAARLVIFYPYSRYYYWGQGTQVTVSS | high polyreactivity
37 | QVQLVESGGGLVQEGGSLRLSCAASGSTFTYYAMGWYRQAPGKERELVAAISRSGGNTYYADSVKGRFTISRDNAKNTVYLQMNSLKPEDTAVYYCAAYRQVYGFDYWGQGTQVTVSS | high polyreactivity
38 | QVQLVESGGGLVQEGGSLRLSCAASGSTFWGYAMGWYRQAPGKERELVATITTGGSTNYADSVKGRFTISRDNAKNTVYLQMNSLKPEDTAVYYCAAERLFRFWYSAYERYDYCGQGTQVTVSS | low polyreactivity
39 | QVQLVESGGGLVQEGGSLRLSCAASRRTFRLYVMGWYSQAPGKERELVAAITWRGRTTYYAHSVKGRFTISRDNAKNTVYLQMNSLKPEDTAVYYCATTRYPRSYQEFGYWGQGTQGTVSS | high polyreactivity
40 | QVQLVESGGGLVQEGGSLRLSCAGSGRTFTFNVMGWYRQAPGKEREFVAAITGTDGSTYYADSVKGRFTISRDNAKNTVYLQMNSLKPEDTAVFYCAARYDWGYVDPGDYWGQGTQVTVSS | high polyreactivity
41 | QVQLVESGGGLVQEGGSLRLSCAPSGRTFAKYAMGWYRQSPGKERELVAAITRGDTTNYADSVKGRFTISRDNAKNTVYLQMNSLKPEDTAVYYCAATPDPPHTYEYWGQGTQVTVSS | low polyreactivity
42 | QVQLVESGGGLVQEGGSVRFSCAASGSISKPNARGWYRQAAGKERELVASITRGGIPNYADSVKGRVTISRDNAKNTVYLQMNSLKPEDTAVYDCAAFYAYSKYSYNIRFYYWGQGTQVTVAS | high polyreactivity
43 | QVQLVESGGGLVQGGGSLRLSCAASGFIFDGNAMGWSRQAPGKEREFVASNSGSGDSTYYADSVKGRFTISRDNAKNTVYLQMNSLKPEDTAVYYCAYEGTPWASGNDYWGQGTQVTVSS | low polyreactivity
